Literature values, collected in patent US8257684B2, “Methods for identifying and targeting autonomic brain regions” (Neurosigma, Inc., priority 2008, dated 2012).
No end group written: not given here.

Molecular target: T1, OX1R (Homo sapiens, UniProt O43613)
T1 sequence (O43613 1-425): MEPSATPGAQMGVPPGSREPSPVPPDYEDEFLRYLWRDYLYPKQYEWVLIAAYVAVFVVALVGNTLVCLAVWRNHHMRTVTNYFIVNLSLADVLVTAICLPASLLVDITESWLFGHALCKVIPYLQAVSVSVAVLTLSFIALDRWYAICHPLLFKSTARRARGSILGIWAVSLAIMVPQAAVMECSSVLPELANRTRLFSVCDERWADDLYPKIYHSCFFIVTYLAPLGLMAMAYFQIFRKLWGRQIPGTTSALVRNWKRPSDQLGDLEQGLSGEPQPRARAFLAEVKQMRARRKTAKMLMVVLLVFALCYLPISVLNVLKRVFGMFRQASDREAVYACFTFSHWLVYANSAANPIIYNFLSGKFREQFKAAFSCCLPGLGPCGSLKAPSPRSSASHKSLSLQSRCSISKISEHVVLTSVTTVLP
Conditions: ORXa versus ORXb; Lund et al., Journal of Biological Chemistry

higher affinity of OX1R for ORXa than for ORXb: approximately 10 fold
Substance: Orexin-A (QPLPDCCRQKTCSCRLYELLHGAGNHAAGILTL; not fully specified (residue 1, C-terminus, bridges); cysteine pairing not given here; UniProt O43612 34-66, looked up) [ORXa, ORX molecule produced in the LHA; agonist of OX1R]
